Laboratory results as given in US20150232562A1 (Ablynx, published 2015).
Residue numbers refer to the chain shown, from its start.

B1: 118N121_A7_1_OK/1-122 (VHH)
VHH: EVQLVESGGGLVQPGGSLRLSCAASGNIKSIDVMGWHRQAPGKERELVSDISFGGNTNYANSVKGRFTISRDNAKNTVYLQMNSLKPEDTAVYYCYADILYKTDIYYRNDFWGQGTQVTVSS
notes: C-term myc-His6 tag
B2: 13G11/1-122 (VHH)
VHH: EVQLVESGGGLVQAGGSLRLSCAASGRTFISNYAMGWFRQAPGKEREFVATINWSGSHSDYADSVKGRFTISRDNAKNTVYLQMNNLKSEDTAVYYCAPGWGTAPLSTSVYWGQGTQVTVSS
notes: C-term myc-His6 tag
B3: 118N121_B8_1_OK/1-135 (VHH)
VHH: EVQLVESGGGLVQDGGSLRLSCAASGQLANFASYAMGWFRQAPGKAREFVAAIRGSGGSTYIADPARSTYYADFVKGRFTISRDNAKNTVYLQMNSLKPEDTAVYYCACETFNSISNLPGEYDYWGQGTQVTVSS
notes: C-term myc-His6 tag
B4: 12E33/1-119 (VHH)
VHH: EVQLVESGGGMVQAGGSLRLSCAASGLTLSNYGMGWFRQAPGKEREFVSSINWSGTHTYDADFVKGRFIISRDNAKNTVYLQINSLKPEDTAVYYCAAGGWGTGRYNYWGQGTQVTVSS
notes: C-term myc-His6 tag
B5: 14H101/1-128 (VHH)
VHH: EVQLVESGGGLVQAGGSLRLSCAASGRTFISSPMGWFRQAPGKEREVVAATTRSGGLPYYSDSVKGRFTISRDNAKNTVDLQMSSLKPEDTAAYYCAADQKYGMSYSRLWLVSEYEYWGQGTQVTVSS
notes: C-term myc-His6 tag
B6: 118N121_A11_1_OK/1-120 (VHH)
VHH: EVQLVESGGGLVQPGGSLRLSCAASGFPFGMYGMRWVRQAPGKGPERVSSINSDGDTTYYADSVKGRFTISRDNDENMLYLQMNSLKPEDTAVYYCATGFSDRSFAVTHKGQGTQVTVSS
notes: C-term myc-His6 tag
B7: 12E21/1-115 (VHH)
VHH: EVQLVESGGGLVQPGGSLRLSCAASGSIDSIHVVGWYRKAPGKQREVVAYIGTAGATHYADSVKGRFTISRDNAENLVYLQMNNLKPEDTAVYYCSAGWGDSAYWGQGTQVTVSS
notes: C-term myc-His6 tag
B8: 118N121_B3_1_OK/1-123 (VHH)
VHH: EVQLVESGGGLVQPGGSLRLSCAASGRTFSDLALGWFRRAPGKEREHVAAISSSGVTTIYADSVRGRFTISRDEAKNTVYLEMNSLKTDDTAVYYCAARLTMATPNQSQYYYWGQGTQVTVSS
notes: C-term myc-His6 tag
B9: 118N121_A6_2_OK/1-123 (VHH)
VHH: EVQLVESGGGLVQAGGSLRLSCVASGRTFSGYSVGWFRQSPGKEREFVGGINWSGRTYYVDSVKGRFTFSRDNAKNTVYLQMNSLKPEDTAIYLCAVDRFNTIANLPGEYDYWGQGTQVTVSS
notes: C-term myc-His6 tag
B10: 118N121_A5_2_OK/1-114 (VHH)
VHH: EVQLVESGGGSVQPGGSLRLSCVASGSISSTNAMGWHRQVSGKERELVAIVTDGFTNYADFAKGRFTISRDNAKTTVYLQMNSLQPEDTARYYCRYSGIGTDNWGQGIEVTVSS
notes: C-term myc-His6 tag
B11: 118N121_A9_2_OK/1-114 (VHH)
VHH: B10 VHH with T31V, S41P, E44Q
notes: C-term myc-His6 tag
B12: 118N121_B7_1_OK/1-119 (VHH)
VHH: EMQLVESGGGLVQPGGSLRLSCAASGNIPPINAMAWYRQAPGNERELVAAVTSGGGTNYATSVKGRFIISRDDSKNTVDLQMNSLKPEDTAVYYCNLGGWTRTHPFDYWGQGTQVTVSS
notes: C-term myc-His6 tag
B13: 13F21/1-123 (VHH)
VHH: EVQLVESGGGLVQSGGSLRLSCVASGTIVSINATSWYRQAPGNQRELVATIIGDGRTHYADSVKDRFTISRDAAANLVYLQMNSLKPSDTAIYSCNANGIESYGWGNRHFNYWTVGTQVTVSS
notes: C-term myc-His6 tag
B14: 118N121_A10_1_OK/1-131 (VHH)
VHH: EVQLVESGGGLVQAGGSLRLSCAASGFSFADYAIGWFRQAPGKEREGVSCIANSEGTKYYADSAQGRLPISSDNAKKTVYLQMDSLKPEDTAVYYCAALPYTICPVVVKKGAVYYGVDDYWGKGTQVTVSS
notes: C-term myc-His6 tag
B15: 118N121_B2_1_OK/1-130 (VHH)
VHH: EVQLVESGGGLVQAGGSLRLSCAASGFSLDDRAIAWFRQAPGKAREGVSCITPHHGGIIFTRESVKGRFATSSDSAKNTVYLQMHSLKPEDTAVYYCATLRTDYSINWANCQRDSLYGYWGQGTQVTVSS
notes: C-term myc-His6 tag
B16: 118N121_A2_2_OK/1-124 (VHH)
VHH: KVQLVESGGGLVQAGGSLRLSCAASGRTFSNYSVGWFRQAPGKEREFVAALSKDGARTYYAASVKGRFTIYRDNAKNVVYLQMSVLNGEDTAVYYCAADHFTFMSNLPSEYDYWGQGTQVTVSS
notes: C-term myc-His6 tag
B17: 118N121_B7_4_OK/1-124 (VHH)
VHH: EVQLVESGGGLEQAGGSLRLSCAASGLTFRSAAMGWFRQGPGKEREFVAAISRDGAATYYTDSVKGRFTISRDNAKNTVFLQMNSLKPEDTAIYYCAADFRLARLRVADDYDYWGQGTQVTVSS
notes: C-term myc-His6 tag
B18: 118N121_A8_2_OK/1-124 (VHH)
VHH: EVQLVESGGGLVQAGGSLTLSCVISGLTLESHAMGWFRQAPGEEREFVATIRWSGSATFYSDSVKGRFTISRDNAKNTVYLQMNSLKPEDTAVYYCAARKIYRSLSYYGDYDSWGQGTQVTVSS
notes: C-term myc-His6 tag
B19: 2E2 (VHH)
VHH: EVQLVESGGGLVQPGGSLRLSCVASGFSLDDYGMTWVRQAPGKGLEWVSSINWSGTHTDYADSVKGRFTISRDNAKNTLFLQMNSLTPEDTAVYYCNQGWKIIPTDRRGHGTQVTVSS
notes: C-term myc-His6 tag
B20: 13D11 (VHH)
VHH: B19 VHH with Q13H, A24G, Q39R, T87N, N97G, I103V, D106N, R107P
notes: C-term myc-His6 tag
B21: 13D2 (VHH)
VHH: B19 VHH with S85N, T87R, P88S, Y95S, I103V, R108G
notes: C-term myc-His6 tag
B22: 2E5 (VHH)
VHH: EVQLVESGGSLVQPGESLRLSCAASGFTFDDYAMSWVRQAPGKGLEWISSINWSGTHTDYADSVKGRFTISRNNANNTLYLQMNNLKFEDTAVYYCAKNWRDAGTTWFEKSGSAGQGTQVTVSS
notes: C-term myc-His6 tag
B23: 30E10 (VHH)
VHH: B22 VHH with E1K, Q13P, E16G, S35T, I48V, A61T, N85S, F88S, R101G
notes: C-term myc-His6 tag
B24: 17G8 (VHH)
VHH: B22 VHH with Q13P, E16G, I48V, D59G, A61T, N85S, F88S, R101G
notes: C-term myc-His6 tag
B25: 17E2 (VHH)
VHH: B22 VHH with Q13P, E16G, A33G, I48V, A61T, N85S, F88S, R101G
notes: C-term myc-His6 tag
B26: 27D4 (VHH)
VHH: B22 VHH with E16G, S35T, P41S, I48V, N85S, F88S, R101G
notes: C-term myc-His6 tag
B27: 15F9 (VHH)
VHH: B22 VHH with E16G, S35T, I48V, A61T, D62G, N85S, F88S, E89D, R101G
notes: C-term myc-His6 tag
B28: 15G1 (VHH)
VHH: B22 VHH with Q13P, E16G, I48V, A61T, N85S, F88S
notes: C-term myc-His6 tag
B29: 27G2 (VHH)
VHH: B22 VHH with E16G, S35T, A40T, I48V, A61T, N85S, F88S, E89D, R101G, Q116P
notes: C-term myc-His6 tag
B30: 27B1 (VHH)
VHH: B22 VHH with E16G
notes: C-term myc-His6 tag
B31: 39C1 (VHH)
VHH: B22 VHH with Q13P, E16G, A33G, I48V, A61T, N85S, F88S, R101G
notes: C-term myc-His6 tag
B32: 29H1 (VHH)
VHH: B22 VHH with Q13P, E16G, I48V, D59G, A61T, N85S, F88S, R101G
notes: C-term myc-His6 tag
B33: 17D8 (VHH)
VHH: B22 VHH with Q13P, E16G, A24V, I48V, A61T, T78M, N85S, F88S
notes: C-term myc-His6 tag
B34: 17E7 (VHH)
VHH: B22 VHH with E16G, A40V, I48V, N85S, F88S
notes: C-term myc-His6 tag
B35: 17E10 (VHH)
VHH: B22 VHH with E16G, S35T, I48V, Y60C, A61T, N85S, F88S, R101G
notes: C-term myc-His6 tag
B36: 5F8 (VHH)
VHH: B22 VHH with E16G, M34L
notes: C-term myc-His6 tag
B37: 13B2 (VHH)
VHH: B22 VHH with E16G, T58K
notes: C-term myc-His6 tag
B38: 13D8 (VHH)
VHH: B22 VHH with E16G, S35T, P41S, I48V, A61T, N85S, F88S, R101G
notes: C-term myc-His6 tag

What follows are binders tested against T1, recombinant human ErbB2/Fc chimera (human, UniProt P04626 23-652) (assay: ELISA, coated ErbB2/Fc).
T1 construct: bought from R&D Systems; also called rhErbB2-Fc; rhErb2-Fc; Fc part of the bought chimera not given; not described

| Binder | binding result |
| --- | --- |
| B1 | binds |
| B2 | binds |
| B3 | binds |
| B4 | binds |
| B5 | binds |
| B6 | binds |
| B7 | binds |
| B8 | binds |
| B9 | binds |
| B10 | binds |
| B11 | binds |
| B12 | binds |
| B13 | binds |
| B14 | binds |
| B15 | binds |
| B16 | binds |
| B17 | binds |
| B18 | binds |

The binders below were run against T2, Epidermal Growth Factor Receptor 2 (HER2) (human, UniProt P04626 23-1255) (assay: FMAT competition on SKBR3 cells, periplasmic extract).
T2 construct: whole, on cells; the cell line is named under assay; also called ErbB-2; ERBB2

| Binder | % blocking of Herceptin binding [%] |
| --- | --- |
| B19 | > 90 |
| B20 | > 90 |
| B21 | > 90 |
| B22 | > 90 |
| B23 | > 90 |
| B24 | > 90 |
| B25 | > 90 |
| B26 | > 90 |
| B27 | > 90 |
| B28 | > 90 |
| B29 | > 90 |
| B30 | > 90 |
| B31 | > 90 |
| B32 | > 90 |
| B33 | > 90 |
| B34 | > 90 |
| B35 | > 90 |
| B36 | > 90 |
| B37 | > 90 |
| B38 | > 90 |
